For experiment [1], the target named is CNK^CRIC Q84E (Flag-CNK^2–549 assumed). The experiment in a line: GST pull-down, immunoblot quantification. The settings on record: S2 cells, Flag-CNK2–549, V5-KSR, Myc-MEK, GST-HYP co-expressed, captured via GST-HYP, parent: 1.00.
Experiment [2] concerns the target endogenous CNK (anti-CNK blot, no CNK construct transfected). The experiment in a line: anti-V5 immunoprecipitation, immunoblot quantification. The conditions noted are these: S2 cells; V5-KSR and Myc-MEK co-expressed; anti-CNK blot (band near 180 kDa); parent: 1.00. In general terms: In western blotting, separated proteins are transferred to a membrane and probed.

In experiment [3] the target is CNK^SAM R46F (Flag-CNK^2–549 assumed). The experiment in a line: GST pull-down, immunoblot quantification. The conditions noted are these: S2 cells, Flag-CNK2–549, V5-KSR, Myc-MEK, GST-HYP co-expressed, captured via GST-HYP, parent: 1.00.
For experiment [4], the target named is Flag-CNK^2–549 (UniProt Q7KNQ9). The experiment in a line: GST pull-down, immunoblot quantification. The conditions noted are these: S2 cells, Flag-CNK2–549, V5-KSR, Myc-MEK, GST-HYP co-expressed, captured via GST-HYP, parent: 1.00.
Flag-CNK^2–549, sequence (Q7KNQ9 entry or part of it): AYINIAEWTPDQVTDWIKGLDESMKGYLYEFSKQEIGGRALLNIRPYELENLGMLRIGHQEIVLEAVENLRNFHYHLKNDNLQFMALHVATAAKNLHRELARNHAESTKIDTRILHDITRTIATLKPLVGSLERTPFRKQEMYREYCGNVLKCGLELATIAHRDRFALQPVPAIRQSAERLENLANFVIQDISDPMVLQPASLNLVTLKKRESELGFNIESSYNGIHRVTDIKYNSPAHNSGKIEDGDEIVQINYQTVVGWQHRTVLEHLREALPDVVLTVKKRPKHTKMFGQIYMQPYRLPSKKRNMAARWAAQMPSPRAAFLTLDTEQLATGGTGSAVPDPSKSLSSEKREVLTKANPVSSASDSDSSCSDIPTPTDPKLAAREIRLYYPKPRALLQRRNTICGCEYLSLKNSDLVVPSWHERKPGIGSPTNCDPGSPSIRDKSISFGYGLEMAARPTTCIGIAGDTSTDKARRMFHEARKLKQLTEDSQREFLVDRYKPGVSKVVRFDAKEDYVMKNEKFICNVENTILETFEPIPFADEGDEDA
The target in experiment [5] is CNK^CRIC N96E (Flag-CNK^2–549 assumed). The experiment in a line: GST pull-down, immunoblot quantification. The settings on record: S2 cells, Flag-CNK2–549, V5-KSR, Myc-MEK, GST-HYP co-expressed, captured via GST-HYP, parent: 1.00.
In experiment [6] the target is CNK^SAM Y76R (Flag-CNK^2–549 assumed). The experiment in a line: GST pull-down, immunoblot quantification. The conditions noted are these: S2 cells, Flag-CNK2–549, V5-KSR, Myc-MEK, GST-HYP co-expressed, captured via GST-HYP, parent: 1.00.
Experiment [7] addresses T1, V5-KSR R913E, Q24171.
T1 chain: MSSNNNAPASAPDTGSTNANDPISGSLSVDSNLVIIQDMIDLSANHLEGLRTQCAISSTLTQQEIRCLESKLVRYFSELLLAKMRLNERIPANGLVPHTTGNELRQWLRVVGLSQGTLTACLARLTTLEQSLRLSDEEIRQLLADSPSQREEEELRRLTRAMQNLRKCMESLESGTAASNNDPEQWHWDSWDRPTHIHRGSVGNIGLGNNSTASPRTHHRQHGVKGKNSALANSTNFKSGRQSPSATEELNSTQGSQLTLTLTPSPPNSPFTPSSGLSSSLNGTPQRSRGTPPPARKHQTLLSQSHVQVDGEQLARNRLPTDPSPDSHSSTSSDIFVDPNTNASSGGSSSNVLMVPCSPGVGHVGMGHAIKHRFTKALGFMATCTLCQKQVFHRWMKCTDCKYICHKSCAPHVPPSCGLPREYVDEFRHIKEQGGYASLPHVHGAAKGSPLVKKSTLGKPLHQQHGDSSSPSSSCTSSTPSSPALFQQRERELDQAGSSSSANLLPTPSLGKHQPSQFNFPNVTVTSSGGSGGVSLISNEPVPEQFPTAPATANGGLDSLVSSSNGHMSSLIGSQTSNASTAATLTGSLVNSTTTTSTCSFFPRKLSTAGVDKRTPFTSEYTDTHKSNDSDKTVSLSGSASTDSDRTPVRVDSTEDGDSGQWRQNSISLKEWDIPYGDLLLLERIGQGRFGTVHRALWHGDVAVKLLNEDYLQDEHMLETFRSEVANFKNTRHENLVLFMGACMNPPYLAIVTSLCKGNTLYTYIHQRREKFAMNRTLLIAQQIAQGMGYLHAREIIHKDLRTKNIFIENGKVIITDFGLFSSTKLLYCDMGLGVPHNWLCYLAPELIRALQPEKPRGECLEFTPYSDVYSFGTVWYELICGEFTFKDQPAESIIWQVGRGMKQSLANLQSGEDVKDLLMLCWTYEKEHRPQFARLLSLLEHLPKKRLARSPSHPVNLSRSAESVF
The experiment in a line: anti-V5 immunoprecipitation, immunoblot quantification. The settings on record: chain shown with the change; S2 cells; V5-KSR and Myc-MEK co-expressed; anti-Myc (MEK) blot; parent: 1.00.

As for m5; m8 KSR:R913E; CNK:Q84E, the results for the ratio to parent in experiment [1] (anti-Myc (MEK) blot) and in experiment [1] (anti-V5 (KSR) blot) were 0.1 and 0.13, respectively. For V5-KSR (from UniProt Q24171) K903D, in experiment [2], the ratio to parent is 0.26. With m6; m8 MEK:E323R; CNK:R46F, the values for the ratio to parent in experiment [3] (anti-Myc (MEK) blot) and in experiment [3] (anti-V5 (KSR) blot) were 0.2 and 0.23, respectively. In the case of V5-KSR (from UniProt Q24171) E926R, in experiment [2], the ratio to parent stood at 1.12.

In the case of V5-KSR (from UniProt Q24171) Y925D, the ratio to parent in experiment [2] amounted to 0.25.

As for m5; m6 KSR:R913E; MEK:E323R, the ratio to parent in experiment [4] (anti-Myc (MEK) blot) and in experiment [4] (anti-V5 (KSR) blot) was 0.41 in each case. In the case of m6; m8 MEK:E323R; CNK:N96E, the ratio to parent in experiment [5] (anti-Myc (MEK) blot) came to 0.22; in experiment [5] (anti-V5 (KSR) blot), 0.27.

As for V5-KSR (from UniProt Q24171) M902D, the ratio to parent in experiment [2] was 0.13. Take m6; m8 MEK:E323R; CNK:Y76R: the ratio to parent was determined as 0.06 in experiment [6] (anti-Myc (MEK) blot) and 0.09 in experiment [6] (anti-V5 (KSR) blot). As to m6; m8 MEK:E323R; CNK:Q84E, the ratio to parent was found to be 0.02 in experiment [1] (anti-Myc (MEK) blot) and 0.05 in experiment [1] (anti-V5 (KSR) blot). In the case of V5-KSR (from UniProt Q24171) W896R, the ratio to parent in experiment [2] is 0.29.

B1: m6; m5 MEK:E323R; KSR:R913E (protein)
chain: MSKNKLNLVLPPVNTEATVAAATVAPTPPFKTPSGTDTHSLLGKPKTSIDALTETLEGLDMGDTERKRIKMFLSQKEKIGELSDEDLEKLGELGSGNGGVVMKVRHTHTHLIMARKLIHLEVKPAIKKQILRELKVLHECNFPHIVGFYGAFYSDGEISICMEYMDGGSLDLILKRAGRIPESILGRITLAVLKGLSYLRDNHAIIHRDVKPSNILVNSSGEIKICDFGVSGQLIDSMANSFVGTRSYMSPERLQGTHYSVQSDIWSLGLSLVEMAIGMYPIPPPNTATLESIFADNAEESGQPTDEPRAMAIFELLDYIVNRPPPKLEHKIFSTEFKDFVDICLKKQPDERADLKTLLSHPWIRKAELEEVDISGWVCKTMDLPPSTPKRNTSPN
As for B1, the ratio to parent in experiment [7] amounted to 1.01.

Values taken from paper PMC11257983 (2024).
